From the nanobody polyreactivity screen of Harvey et al. (2022) come the findings set out here.

The series in a line: yeast display, Sf9 membrane polyspecificity reagent, FACS + sequencing; frameworks hold sequencing errors. Put shortly: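 Galactose induction of a Saccharomyces cerevisiae BJ5465 synthetic nanobody display library ran 36–48 hours. The cells were then stained for 1 hour at 4 °C with 10% biotinylated, detergent-solubilized Sf9 membrane reagent, pulled down on streptavidin microbeads and FACS-sorted into low and high (top ~1%) gates on expression and reagent-binding fluorescence. Labels for polyreactivity follow the gate of origin.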
For “QVQLVESGGGLVQAGGSLRLSCAASGRIFTWYTMGWYRQAPGKERELVAAINRGGSTTYADSVKGRFTISRDNAKNTVYLQMNSLKPEDTAVYSCAAYRYTSRVYSYWRGYDYWGQGTQVTVSS”, the “polyreactivity (PSR sort gate)” value is given as “high polyreactivity”.

Turning to “QVQLVESGGGLVQAGGSLRLSCAASGRIFTYNAMGWYRQAPGKERELDATITWRGGGTYYADSVKGRFTISRDNAKNTVYLQMNSLKPEDTAVYYCNRRLPGDGQYGYRRYDYWGQGTQVTVSS”, the “polyreactivity (PSR sort gate)” value was “low polyreactivity”.

With “QVQLVESGGGLVQAGGSLRLSCAASGRIFTYNAMGWYRQAPGKERELVAASSRRGGTTYYADSVKGRFTISRDIAKITVYLQMNSLKPEDTAVYYCAARGQYRYSFGDYSWGQGTQVTVSS”, the “polyreactivity (PSR sort gate)” value is reported as “high polyreactivity”.

As for “QVQLVESGGGLVQAGGSLRLSCAASGRIFTYNVMGWYRQAPGKERELVAAIYSSGVRTSYADSVKGRFTISRDNAKNTVYLHMNSLKPEDTALYYCAADKRYHYGLLHDPSYYYDYWGQGTQVTVSS”, the “polyreactivity (PSR sort gate)” value is listed as “low polyreactivity”.

For the sequence “QVQLVESGGGLVQAGGSLRLSCAASGRIFVANAMGWYRKAPGTERELVAAISRRGGRTYYADSVKGRFTISRDNAKNTVYLQMNSLKPEDTAVYYCAAIRSVTRFPRRYDYWGQGTPVTVSS”, the “polyreactivity (PSR sort gate)” value is recorded as “high polyreactivity”.

Consider “QVQLVESGGGLVQAGGSLRLSCAASGRIFVANAMGWYRQAPGKERELVAVISGSGGRTYYADSVKGRFTISRDNAKNTVYLQMNSLKPEDTAVYYCAAQKWQQGITAYEYWGQGTQVTVSS”, for which the “polyreactivity (PSR sort gate)” value is recorded as “high polyreactivity”.

In the case of “QVQLVESGGGLVQAGGSLRLSCAASGRIFVAYAMGWYRQAPGKERELVAAITWSGTSTYADSVKGRFTISRDNAKNTVYLQMNSLKPEDTAVYYCAKKAIVSDQWDKYDYWGQGTQVTVSS”, the “polyreactivity (PSR sort gate)” value was “low polyreactivity”.

For “QVQLVESGGGLVQAGGSLRLSCAASGRIFVAYAMGWYRQAPGKQRELVADIDYIDGSTYYADSVKGRFTISRDNAKNTVYLQMNSLKPEDTAVYYCAVDSLYYAGYYDYWGQGTQVTVSS”, the “polyreactivity (PSR sort gate)” value is given as “high polyreactivity”.

For “QVQLVESGGGLVQAGGSLRLSCAASGRIFVDNAMGWYRQAPGKERELVATITSTGSTNYADSVKGRFTISRDNAKYTVYLQMNSLKPEDTAVYYCNADGKLQDYDYWGQGTQVTVSS”, the “polyreactivity (PSR sort gate)” value is “high polyreactivity”.

On to “QVQLVESGGGLVQAGGSLRLSCAASGRIFVFNAMGWYRQAPGKERELVAAISRRGGSTYYADSVKGRFTISRDNAKNTVYLQMNSLKPEVTAVYYCAAVYPDYSSARYDYWGQGTQVTVSS”, for which the “polyreactivity (PSR sort gate)” value is recorded as “high polyreactivity”.

Take “QVQLVESGGGLVQAGGSLRLSCAASGRIFVFYAMGWYRQAPGKERELVAAISKSVGPTYYADSVKGRFTISRDTAKNTVYLQMNSLKPADTAGYYCNKRSASDLWPQYGYWGQGTQVTVSS”: the “polyreactivity (PSR sort gate)” value is on record as “low polyreactivity”.

Consider “QVQLVESGGGLVQAGGSLRLSCAASGRIFVFYAMGWYRQAPGKVREFVATISYSGDTTYYADSVKGRFTISRDNAKNTVYLEMNSLKPEDTAVYYCAADQVPSYYYVPLGYDSWGQGTQVTVSS”, for which the “polyreactivity (PSR sort gate)” value is given as “low polyreactivity”.

As for “QVQLVESGGGLVQAGGSLRLSCAASGRIFVGDAMGWYRQAPGTERELVAAISRDGDNTFYADSVKGRFTISRDNAKNTVYLQMNSLKPEDTAVYYCAVDYWVWYGSAYAYDYYWGQGTQVTVSS”, the “polyreactivity (PSR sort gate)” value is reported as “low polyreactivity”.

Turning to “QVQLVESGGGLVQAGGSLRLSCAASGRIFVGNAMGWYRQAPGKERELVAAISRSGGRTYYADSVKGRFTISRDNAKNSVYLQMNSLKPEDTAVYYCAAVSLSGRYGDYDYWGQGTQVTVSS”, the “polyreactivity (PSR sort gate)” value is reported as “high polyreactivity”.

Regarding “QVQLVESGGGLVQAGGSLRLSCAASGRIFVGYAMGWYRQAPGKERELVAAISARGGSTYYADSVKGRFTISRDNAKNTVYLQMNSLKPEDTAVYYCAADEASSRGYYDYDYWGQGTQVTVSS”, the “polyreactivity (PSR sort gate)” value is given as “low polyreactivity”.

As for “QVQLVESGGGLVQAGGSLRLSCAASGRIFVGYAMGWYRQAPGKERELVAAISRSGARTYYADSVKGRFTISRAIAKNTVYLQMNSLKPVDTAVYYCNTVKVLIYSWGQGTQVTVSS”, the “polyreactivity (PSR sort gate)” value is recorded as “high polyreactivity”.

In the case of “QVQLVESGGGLVQAGGSLRLSCAASGRIFVGYAMGWYRQAPGKERELVAAITGSGGGTYYADSVKGRFTISRDNAKNTVYLQMNSLKPEDTAVYYCNARYRSYYVTQRLDYWGQGTQVTVSS”, the “polyreactivity (PSR sort gate)” value was “high polyreactivity”.

As for “QVQLVESGGGLVQAGGSLRLSCAASGRIFVGYTMGWYRQAPGKERELVAAITSGGSTYYADSVKGRFTISRDNAKNTVYLQMNSLNPEDTADYYCNAAYQFDSYHLGGNRYEYWGQGTQETVSS”, the “polyreactivity (PSR sort gate)” value was “low polyreactivity”.

As for “QVQLVESGGGLVQAGGSLRLSCAASGRIFVINAMGLYRQAPGKERELVADITWSGGSTYADSVKGRFTISRDTAKNTVYLQLNSLKPEDTAVYYCAAVYLRVDRYLQVYRYDYWGQGTQVTVSS”, the “polyreactivity (PSR sort gate)” value is on record as “high polyreactivity”.

Regarding “QVQLVESGGGLVQAGGSLRLSCAASGRIFVKNAMGWYRQAPGKERELVAAISSSSGSTYYADSVKGRFTISRDNAKNTVYLQMNSLKPEDTAVYYCATVRWYYSRPRPTTAYGYWGQGTQVTVSS”, the “polyreactivity (PSR sort gate)” value is “high polyreactivity”.

On to “QVQLVESGGGLVQAGGSLRLSCAASGRIFVLNAMGWYRQAPGKERELVAAITFSGGRTYYADSVKGRFTISRDNAKNTVYLQMNSLKPEDTAVYYCATRQDWRRTYGYWGQGTQVTVSS”, for which the “polyreactivity (PSR sort gate)” value is given as “low polyreactivity”.

Take “QVQLVESGGGLVQAGGSLRLSCAASGRIFVNNAMGWSRQAPGKERELVAAISKRGGSTYYADSVKGRFTISRDNAKNSVYLQMNSLKPEDTAVYYCAATPVYSGPYDYWGQGTQVTVSS”: the “polyreactivity (PSR sort gate)” value is “high polyreactivity”.

On to “QVQLVESGGGLVQAGGSLRLSCAASGRIFVNYAMGWYRQAPGKERELVAAITSDGSTSYADSVKGRFTISRDNAKNTVYLQMNSLKPEDTAVYYCAKDFFEHSPVSHTYSSSNYDYWGQGTQVTVSS”, for which the “polyreactivity (PSR sort gate)” value was “low polyreactivity”.

“QVQLVESGGGLVQAGGSLRLSCAASGRIFVPNAMGWYSQAPGKERELVAAINWGGGSTYYADSVKGRFTISRDNAKNTVYLQMNSLKPEDTAVYYCAADHPYTIGVLPNQQFDYWGQGTQVTVSS”: the “polyreactivity (PSR sort gate)” value is given as “low polyreactivity”.

Regarding “QVQLVESGGGLVQAGGSLRLSCAASGRIFVPYLMGWYRQAPGKERELVASISDSDTSTYYADSVKGRFTISRDNAKNTVYLQMNCLKPEDTAVYYCNVDYWGQGTQVTVSS”, the “polyreactivity (PSR sort gate)” value is on record as “low polyreactivity”.

On to “QVQLVESGGGLVQAGGSLRLSCAASGRIFVPYLMGWYRQAPGKERELVASISDSDTSTYYADSVKGRFTISRDNAKNTVYLQMNSLKPEDTAVYYCNVDYWGQGTQVTVSS”, for which the “polyreactivity (PSR sort gate)” value was “low polyreactivity”.

On to “QVQLVESGGGLVQAGGSLRLSCAASGRIFVQNAMGWYRQAPGKERELVAAISISGARTYYADSVKGRFTISRDNAKNSDYLQMNRLKPEDTAVYYCNASYRDEDDYWGQGTQVTVSS”, for which the “polyreactivity (PSR sort gate)” value was “high polyreactivity”.

“QVQLVESGGGLVQAGGSLRLSCAASGRIFVRNAMGWYRQAPGKERELVAAITRTGASTYYADSVKGRFTISRDNAKNTVYLQMNSLKPEDTAVYYCNKEIVWHLWYESWGQGTQVTVSS”: the “polyreactivity (PSR sort gate)” value is on record as “high polyreactivity”.

Regarding “QVQLVESGGGLVQAGGSLRLSCAASGRIFVRNAMGWYRQAPRKERELVADITNGGSTNYADSVKGRFTISRDNGMNTVYLQMNSLKPEDTAVYYCAADTLGVYDGDYWGQGTQVTVSS”, the “polyreactivity (PSR sort gate)” value is listed as “low polyreactivity”.

Consider “QVQLVESGGGLVQAGGSLRLSCAASGRIFVRYAMGWYRQAPGKERELVAAINWRGSSTYYADSVKGRFTISRDNAKNTVYLQMTSLKPEDTAVYYCNTAQRYRVYRYDYWGQGTQVTVSS”, for which the “polyreactivity (PSR sort gate)” value is “high polyreactivity”.

On to “QVQLVESGGGLVQAGGSLRLSCAASGRIFVSNGMGWYRQAPGKERELVAVIRYSTGSTYYADSVKGRFTFSRDNAKTTVYLQMNCLKPEDTAVYYCAARNPFFEPSEYDYWGQGTQVTVSS”, for which the “polyreactivity (PSR sort gate)” value is listed as “low polyreactivity”.

“QVQLVESGGGLVQAGGSLRLSCAASGRIFVTNAMGWYRQAPGKERELVAAITRGGSTNYADSVKGRFTISRDNAKNTVYLQMNSLKPEDTAVYYCAAKRRYYGPWSRIGYDYWGQGTQVTVSS”: the “polyreactivity (PSR sort gate)” value is “low polyreactivity”.

Take “QVQLVESGGGLVQAGGSLRLSCAASGRIFVTNAMGWYRQAPGNERELVAGLNRSGDITYYADSVKGRFTISRDNAKNTVYLQMNSLKPEDTAVYYCAVDFYVYRWSPYGDVYRYDYWGQGTQVTVSS”: the “polyreactivity (PSR sort gate)” value was “high polyreactivity”.

As for “QVQLVESGGGLVQAGGSLRLSCAASGRIFVVNAMGWYRQAPGKERELVAAISSSSDSTYYADSVKGRFTISRDNAKNTVYLQMNSLKPEDTAVFYCAADYHYDGYWIYDYWGQGTQVTVSS”, the “polyreactivity (PSR sort gate)” value is recorded as “high polyreactivity”.

As for “QVQLVESGGGLVQAGGSLRLSCAASGRIFVVYAMGGYRQAPGKERDLVASISRGGRTYYADSVKGRFTISRDNAKNTVYLQMNSLKPEDTAVYYCAVVVYLKNRDLFDYWGQGTQVTVSS”, the “polyreactivity (PSR sort gate)” value is recorded as “low polyreactivity”.

Take “QVQLVESGGGLVQAGGSLRLSCAASGRIFVVYAMGWSRQAPGKERELVAAIRSGGSTNYADSVKGRFTISRDNAKNTVYFQLNSLKPEDTAVYNCAARKWHSAYDYWGQGTQVTVSS”: the “polyreactivity (PSR sort gate)” value is “high polyreactivity”.

For “QVQLVESGGGLVQAGGSLRLSCAASGRIFVVYAMGWYRQAPGKERELVAAITGGGRTNYADSVKGRFTISRDNAKNTVYLQKNSLKPGDSAVYYCAAGTRSDARRYYYWGQGTQVTVSS”, the “polyreactivity (PSR sort gate)” value is recorded as “low polyreactivity”.

With “QVQLVESGGGLVQAGGSLRLSCAASGRIFVVYAMGWYRQAPGKERELVAAITGGGRTNYADSVKGRFTISRDNAKNTVYLQMNSLKPEDTAVYYCAAGTRSDARRYYYWGQGTQVTVSS”, the “polyreactivity (PSR sort gate)” value is reported as “low polyreactivity”.

For “QVQLVESGGGLVQAGGSLRLSCAASGRIFVVYAMGWYRQAPGKERELVAAITYGGGSTHYADSVKGRFTISRDNAKNTVYLQMNSLKPVDTAVYYCAADVYLVKYDYWGQGTQVTVSS”, the “polyreactivity (PSR sort gate)” value was “low polyreactivity”.

“QVQLVESGGGLVQAGGSLRLSCAASGRIFVVYAMGWYRQAPGKERELVAAITYGGGSTHYADSVKGRFTISRDNAMNTVYLQMISLKPEDTAVYYCAADLFYHSYGYEYWGQGTQVTVSS”: the “polyreactivity (PSR sort gate)” value is “low polyreactivity”.

With “QVQLVESGGGLVQAGGSLRLSCAASGRIFVYNAMGWYRQAPGKERELVAAISGGGSTYYADSVKGRFTISRDNAKNTVYLQMNSLKPEDTAVYYCNTVFSGYARGWFQPAYNYWGQGTQVTVSS”, the “polyreactivity (PSR sort gate)” value is “high polyreactivity”.
